In patent US9198909B1, “Materials and methods for inhibiting mamalian S-nitrosoglutathione reductase” (Indiana University Research and Technology Corporation, priority 2007, dated 2015):

Substrate: CCCCCCCCO
Test: GSNOR substrate kinetics with octanol
Format: biochemical, human
Details: other: octanol as GSNOR substrate; pH 10.0
Method: GSNOR is an alcohol dehydrogenases and like other members of ADH family, is capable of oxidizing and reducing primary alcohols and aldehydes with the help of a molecule of NAD(H). Octanol was chosen as the substrate in the initial screening assay as it is bulky like GSNO, but has 200-fold higher KM value (1 mM) and a kcat value (200 min-1) that is more than 2 order of magnitude lower than that of GSNO. This allows the initial velocity conditions to prevail for a period up to 10 min (data not shown) and it enables conducting a large number of concurrent assays in a384 well plate format. The pH of the assay was adjusted to pH 10 in order to get significant rate of oxidation of octanol in the absence of compounds. The screening for GSNOR inhibitors was performed in the presence of saturating concentration of NAD^+ and an un-saturating concentration of octanol thereby increase the probability of identifying compounds that bind, only or primarily in the GSNO binding site of GSNOR. This was deemed desirable as there are many dehydrogenases inside the cells and compounds binding in the coenzyme binding site are more likely to be nonspecific inhibitors of GSNOR, than compounds that bind primarily to the form of GSNOR that binds GSNO.

B1: GSNOR (Homo sapiens) (protein)
chain: MANEVIKCKAAVAWEAGKPLSIEEIEVAPPKAHEVRIKIIATAVCHTDAYTLSGADPEGCFPVILGHEGAGIVESVGEGVTKLKAGDTVIPLYIPQCGECKFCLNPKTNLCQKIRVTQGKGLMPDGTSRFTCKGKTILHYMGTSTFSEYTVVADISVAKIDPLAPLDKVCLLGCGISTGYGAAVNTAKLEPGSVCAVFGLGGVGLAVIMGCKVAGASRIIGVDINKDKFARAKEFGATECINPQDFSKPIQEVLIEMTDGGVDYSFECIGNVKVMRAALEACHKGWGVSVVVGVAASGEEIATRPFQLVTGRTWKGTAFGGWKSVESVPKLVSEYMSKKIKVDEFVTHNLSFDEINKAFELMHSGKSIRTVVKI
  Km: 1000 µM
  kcat: 3.33 s⁻¹
